T1: HMGB1 (Rattus norvegicus, UniProt P63159)
T1 construct: made in house; host or cells: E. coli BL21 (DE3) pLysS
T1 sequence (P63159 1-215): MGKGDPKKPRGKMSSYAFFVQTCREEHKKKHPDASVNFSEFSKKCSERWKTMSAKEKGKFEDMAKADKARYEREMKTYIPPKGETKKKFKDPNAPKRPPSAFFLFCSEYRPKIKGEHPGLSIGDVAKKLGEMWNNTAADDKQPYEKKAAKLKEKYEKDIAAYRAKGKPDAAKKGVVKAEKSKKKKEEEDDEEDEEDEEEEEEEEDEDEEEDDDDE


Tests used:
[1] = system: Murine macrophage-like RAW 264.7 cells; assay: Cellular HMGB1 and TN uptake; type: cell-based, mouse; conditions: 2 h
Description: Highly purified recombinant HMGB1 and TN protein were labeled with either Alexa Fluor 555 or Alexa Fluor 488 using respective labeling kit (Cat. # A30007 or Cat. # A30006, Thermo Fisher Scientific) according to the manufacturer's instructions. Murine macrophage-like RAW 264.7 cells on cover slips were incubated with unlabeled or Alexa Fluor 555-labeled HMGB1 in the absence or presence of unlabeled or Alexa Fluor 488-labeled TN at 37° C. for 2 h. An endocytosis inhibitor, Dynasore (8.0 μM), or mAb8 (60 μg/ml) were added 30 min before the addition of HMGB1 or TN. Following extensive washings with 1×PBS, cells were fixed with 4% formalin for 20 min at room temperature and mounted on the slide using Vectashield Mounting Medium for Fluorescence with DAPI (Vector Laboratories, Inc., Cat. # H-1200) for nuclei staining (blue). Endocytic uptake of Alexa Fluor 555-labeled HMGB1 (red) or Alexa Fluor 488-labeled TN (green) was visualized via Carl Zeiss fluorescence microscope. To quantitate cellular uptake of HMGB1 and TN, macrophage cultures were incubated with recombinant HMGB1 and TN either individually, or in combination, at 37° C. for 2 h. Following extensive washing, cellular levels of HMGB1 and TN were measured by Western blotting analysis with reference to a house-keeping protein, β-actin.

[2] = system: murine peritoneal macrophages; assay: TN/HMGB1-induced macrophage cell death (trypan blue, LDH release); type: cell-based, mouse; conditions: dynasore 10.0 μM, 16 h
Description: (§1) FIG. 12(A)-12(C): TN and HMGB1 cooperate to induce macrophage cell death. 12(A) Thioglycolate-elicited murine peritoneal macrophages were treated with TN (10 μg/ml) in the absence or presence of HMGB1 (0.5 μg/ml), TN-specific mAb8 (65.0 μg/ml), or dynasore (10.0 μM) for 16 h, and cell viability was assessed by trypan blue dye exclusion or LDH release assay. *, P<0.05 versus negative control; #, P<0.05 versus “+TN” or “+HMGB1” alone; &, P<0.05 versus positive control “+TN+HMGB1” group, n=6-10 per group. 12(B) Murine peritoneal macrophages were stimulated with TN (10 μg/ml) in the absence or presence of HMGB1 (1.0 μg/ml) for 16 h, and the cell-conditioned medium was assayed for ASC release by Western blotting analysis. SDS-PAGE gel indicated equivalent sampling loading. Bar graph represented average of three samples (n=3) from two independent experiments (N=2). *, P<0.05 versus negative controls (“−HMGB1−TN”); #, P<0.05 versus positive control (“+HMGB1” or “+TN” alone). 12(C) Differentiated human macrophages were stimulated with HMGB1 (1.0 μg/ml) and TN (10.0 μg/ml) in the absence or presence of TN-specific mAb (40 μg/ml) or dynasore (20.0 μM) for 16 h. Subsequently, cells were immunostained with Alexa Fluor 594-conjugated anti-ASC IgGs. Scale bars: 10 μm. Narrow arrows point to minute ASC puncta; Wide arrow points to a larger ASC speck. […]

[3] = system: differentiated human macrophages; assay: TN/HMGB1-induced formation of ASC foci/speck; type: cell-based; conditions: dynasore 20.0 μM, 16 h
Description: as §1

HMGB1 = molecular target: T1, HMGB1; assay: OpenSPR assay of TN/HMGB1 interaction; type: binding; conditions: TN or HMGB1 conjugated to the sensor chip
Source text: The cDNA encoding for rat HMGB1 was cloned onto a pCAL-n vector, and the recombinant CBP-HMGB1 (rHMGB1) was expressed in E. coli BL21 (DE3) pLysS cells as previously described. Recombinant HMGB1 containing a ˜3 kDa calmodulin-binding peptide tag (CBP-HMGB1 fusion protein, 33 kDa) was expressed in E. coli, and purified to remove contaminating endotoxin by Triton X-114 extraction as previously described. Recombinant human TN corresponding to residue 22-202 amino acid (without the 21-amino acid leader signal sequence) with a C-terminal histidine tag were expressed in E. coli BL21 (DE3) pLysS cells and purified by histidine-affinity and Triton X-114 extraction to remove contaminating endotoxins. Recombinant TN and HMGB1 proteins were tested for LPS content by the chromogenic Limulus amebocyte lysate assay (Endochrome; Charles River), and the endotoxin content was less than 0.01 U per microgram of recombinant proteins.
We employed the Nicoya Lifesciences gold-nanoparticle-based Open Surface Plasmon Resonance (OpenSPR) technology (Kitchener, ON, Canada) to characterize protein-protein interactions following the manufacturer's instructions. […] The response units were recorded over time, and the binding affinity was estimated as the equilibrium dissociation constant KD using the Trace Drawer Kinetic Data Analysis v.1.6.1. […]

[4] = system: Balb/C mice subjected to CLP sepsis; assay: Sepsis-induced tissue injury (lung histology, serum liver enzymes) after CLP; type: in vivo, mouse; conditions: TN supplementation, 2 and 24 h post CLP
[5] = system: murine peritoneal macrophages; assay: LPS- or SAA-induced HMGB1 release in murine macrophages; type: cell-based, mouse; conditions: 16 h
Description: (§2) Primary peritoneal macrophages were isolated from young male Balb/c (7-8 wks, 20-25 g) at 3 days after intraperitoneal injection of 2 ml thioglycollate broth (4%) as previously described. Briefly, mice were sacrificed by CO2 asphyxiation, and the abdomen region was immediately cleaned with 70% ethanol before making a small excision to expose the abdominal wall, and to insert a catheter into viscera-free pocket to wash out peritoneal macrophages with sucrose solution (11.6%, 7.0 ml). […] The intracellular and extracellular levels of HMGB1, TN, or various other cytokines/chemokines were respectively determined by Western blotting analysis, and Cytokine Antibody Arrays as previous described.
(§3) The levels of TN in human or murine serum were determined by Western blotting analysis using commercial rabbit mAb against the C-terminus of human TN (Abcam) or our home-made murine mAbs (mAb8) against recombinant human TN. Similarly, the cellular and extracellular levels of TN and HMGB1 in murine macrophage and human monocyte cultures were determined by Western blotting analysis using rabbit polyclonal or monoclonal antibodies. […] The relative band intensity was quantified using the UN-SCAN-IT Gel Analysis Software Version 7.1 (Silk Scientific Inc., Orem, UT, USA).

human blood monocytes = assay: LPS- or SAA-induced HMGB1 release in human monocytes; type: cell-based; conditions: 16 h
Description: as §2, §3

macrophage cultures = assay: Cytokine Antibody Array of macrophage cultures; type: cell-based, mouse; conditions: even at 20 μg/ml
Description: (§4) Primary peritoneal macrophages were isolated from young male Balb/c (7-8 wks, 20-25 g) at 3 days after intraperitoneal injection of 2 ml thioglycollate broth (4%) as previously described. Briefly, mice were sacrificed by CO2 asphyxiation, and the abdomen region was immediately cleaned with 70% ethanol before making a small excision to expose the abdominal wall, and to insert a catheter into viscera-free pocket to wash out peritoneal macrophages with sucrose solution (11.6%, 7.0 ml). Human blood was purchased from the New York Blood Center (Long Island City, NY, USA), and human peripheral blood mononuclear cells (HuPBMCs) were isolated by density gradient centrifugation through Ficoll (Ficoll-Paque PLUS, Pharmacia, Piscataway, NJ, USA) as previously described. Murine macrophages and human monocytes (HuBPMCs) were cultured in DMEM supplemented with 1% penicillin/streptomycin and 10% FBS or 10% human serum. When reaching 70-80% confluence, adherent cells were gently washed with, and immediately cultured in, OPTI-MEM I before stimulating with crude LPS, purified SAA, HMGB1, in the absence or presence of human TN. The intracellular and extracellular levels of HMGB1, TN, or various other cytokines/chemokines were respectively determined by Western blotting analysis, and Cytokine Antibody Arrays as previous described. […]

primary human monocytes = assay: Cytokine Antibody Array of human monocyte cultures; type: cell-based; conditions: TN 10 μg/ml, 16 h
Description: as §4

[6] = system: murine peritoneal macrophages; assay: ASC release in macrophage cultures (Western blotting); type: cell-based, mouse; conditions: 16 h
Description: as §2, §3

[7] = Dynasore 8.0 μM or mAb8 60 μg/ml

estimated equilibrium disassociation constant (KD) between TN and HMGB1 (HMGB1) [nM] | Molecule | HMGB1-enhanced cellular uptake of TN [1, 7] | TN-mediated enhancement of cellular HMGB1 uptake [1, 7] | TN/HMGB1 induced cell death [2] | TN/HMGB1 induced ASC aggregation [3] | sepsis-induced injury in the liver ([4]; ALT and AST at 28 h) | sepsis-induced injury in the lung ([4]; analysis at 28 h) | LPS- and SAA-induced HMGB1 release [5] | LPS- and SAA-induced HMGB1 release (human blood monocytes) | LPS-, SAA-, or HMGB1-induced release of other cytokines and chemokines (macrophage cultures) | release of ENA-78 (CXCL5, LIX) (primary human monocytes) | release of GRO (CXCL1 or KC) (primary human monocytes) | HMGB1 cellular uptake ([1]; TN at physiological concentrations) | ASC release, added individually [6] | ASC release, co-addition with HMGB1 [6]
– | O=C(N/N=C/c1ccc(O)c(O)c1)c1cc2ccccc2cc1O [dynasore] | similarly attenuated | prevented | inhibit | inhibit | – | – | – | – | – | – | – | – | – | –
1.21 to 2.88 | tetranectin (protein, UniProt P05452 22-202, looked up) Tetranectin: EPPTQKPKKIVNAKKDVVNTKMFEELKSRLDTLAQEVALLKEQQALQTVCLKGTKVHMKCFLAFTQTKTFHEASEDCISRGGTLGTPQTGSENDALYEYLRQSVGNEAEIWLGLNDMAAEGTWVDMTGARIAYKNWETEITAQPDGGKTENCAVLSGAANGKWFDKRCRDQLPYICQFGIV | – | – | – | – | marked attenuation | marked attenuation | dose-dependently inhibited | dose-dependently inhibited | did not inhibit | reproducibly and specifically induced the release | reproducibly and specifically induced the release | markedly enhanced | weakly induced | synergistic enhancement

From patent US12497446B2, “Tetranectin-targeting monoclonal antibodies to fight against lethal sepsis and other pathologies” (The Feinstein Institutes For Medical Research, priority 2019, dated 2025)
